The text below walks through data of patent publication US20230265215A1 (OMEROS, published 2023).

Where “and” joins values, the source holds several entries; their conditions need not be identical. Equal entries are not always repeated. Where only a bound is given, the exact number is not on record here.

The target of assay [1] is T1, human MASP-2 (endogenous, in normal human serum) (human, UniProt O00187 16-686). Description: cell-based or functional assay.
Assay [2] addresses T1, human MASP-2 (endogenous, in normal …). As to the kind of experiment: cell-based or functional assay. The source holds these as a separate data set.
For assay [3], the target named is mouse MASP-2 (endogenous, in mouse serum or hirudin plasma) (mouse, UniProt Q91WP0 20-685). Description: cell-based or functional assay.
mouse MASP-2 (endogenous, in mouse serum or hirudin plasma), sequence (Q91WP0 20-685 limits assumed): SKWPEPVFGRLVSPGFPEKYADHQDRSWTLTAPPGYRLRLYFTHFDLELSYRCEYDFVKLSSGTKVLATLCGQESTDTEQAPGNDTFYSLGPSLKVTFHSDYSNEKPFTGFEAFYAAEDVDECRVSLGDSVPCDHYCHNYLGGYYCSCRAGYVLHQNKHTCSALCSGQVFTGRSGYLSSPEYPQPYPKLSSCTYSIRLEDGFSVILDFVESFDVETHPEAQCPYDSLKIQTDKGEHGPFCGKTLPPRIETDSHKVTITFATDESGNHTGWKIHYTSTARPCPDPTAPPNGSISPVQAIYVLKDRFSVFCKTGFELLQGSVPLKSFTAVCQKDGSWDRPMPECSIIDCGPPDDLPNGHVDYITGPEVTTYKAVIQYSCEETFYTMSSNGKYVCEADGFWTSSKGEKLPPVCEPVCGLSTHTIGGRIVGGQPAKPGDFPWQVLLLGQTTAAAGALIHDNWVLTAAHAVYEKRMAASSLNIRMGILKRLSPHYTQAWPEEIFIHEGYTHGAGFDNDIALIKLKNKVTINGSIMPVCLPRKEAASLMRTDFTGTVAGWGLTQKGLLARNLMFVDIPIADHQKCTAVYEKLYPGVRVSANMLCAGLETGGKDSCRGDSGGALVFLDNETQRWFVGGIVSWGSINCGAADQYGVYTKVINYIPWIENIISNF
Assay [4] deals with rat MASP-2 (endogenous, in rat serum) (rat, UniProt Q9JJS8 20-685). As to the kind of experiment: cell-based or functional assay.
rat MASP-2 (endogenous, in rat serum), sequence (Q9JJS8 other isoform, or with tags, fused parts or gaps limits assumed): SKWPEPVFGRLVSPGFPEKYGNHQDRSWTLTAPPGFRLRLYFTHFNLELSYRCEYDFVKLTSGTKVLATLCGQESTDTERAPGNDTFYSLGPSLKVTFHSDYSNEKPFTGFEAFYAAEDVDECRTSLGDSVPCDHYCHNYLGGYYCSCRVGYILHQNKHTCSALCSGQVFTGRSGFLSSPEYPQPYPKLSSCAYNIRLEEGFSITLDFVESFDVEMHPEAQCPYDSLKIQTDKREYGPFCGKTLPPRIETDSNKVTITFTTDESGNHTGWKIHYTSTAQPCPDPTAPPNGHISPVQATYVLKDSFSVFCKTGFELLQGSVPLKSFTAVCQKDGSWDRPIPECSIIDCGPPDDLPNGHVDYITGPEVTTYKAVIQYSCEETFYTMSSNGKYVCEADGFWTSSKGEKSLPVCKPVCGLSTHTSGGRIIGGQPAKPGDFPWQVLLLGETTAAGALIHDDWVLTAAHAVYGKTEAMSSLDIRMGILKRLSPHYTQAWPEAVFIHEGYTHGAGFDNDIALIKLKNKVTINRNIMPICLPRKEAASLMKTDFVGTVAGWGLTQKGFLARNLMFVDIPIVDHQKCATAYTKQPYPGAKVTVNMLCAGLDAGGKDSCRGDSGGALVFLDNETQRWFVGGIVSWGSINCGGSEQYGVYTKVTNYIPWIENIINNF
The target in assay [5] is cynomolgus monkey MASP-2 (endogenous, in cynomolgus monkey serum) (cynomolgus monkey, UniProt O00187 16-686 (human entry), limits assumed). As to the kind of experiment: cell-based or functional assay.
cynomolgus monkey MASP-2 (endogenous, in cynomolgus monkey serum), sequence (O00187 other isoform, or with tags, fused parts or gaps limits assumed): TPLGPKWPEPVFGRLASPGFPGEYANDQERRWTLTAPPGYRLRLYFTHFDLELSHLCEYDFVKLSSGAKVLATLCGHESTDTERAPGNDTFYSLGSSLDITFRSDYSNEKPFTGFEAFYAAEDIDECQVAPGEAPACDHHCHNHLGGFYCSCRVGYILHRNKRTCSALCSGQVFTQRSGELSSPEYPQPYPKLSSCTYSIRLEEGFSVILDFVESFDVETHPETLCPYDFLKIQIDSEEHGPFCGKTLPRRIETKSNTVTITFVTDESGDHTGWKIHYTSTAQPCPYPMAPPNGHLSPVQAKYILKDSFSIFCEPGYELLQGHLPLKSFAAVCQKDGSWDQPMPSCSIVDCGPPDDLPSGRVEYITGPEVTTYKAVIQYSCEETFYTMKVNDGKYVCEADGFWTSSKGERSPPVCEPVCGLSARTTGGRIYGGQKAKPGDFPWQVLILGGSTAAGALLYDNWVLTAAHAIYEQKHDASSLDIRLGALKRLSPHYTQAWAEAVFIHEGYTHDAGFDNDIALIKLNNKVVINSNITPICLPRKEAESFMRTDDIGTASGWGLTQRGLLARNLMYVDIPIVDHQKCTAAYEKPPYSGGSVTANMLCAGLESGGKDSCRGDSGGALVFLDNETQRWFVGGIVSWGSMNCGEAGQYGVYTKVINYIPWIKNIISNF
For assay [6], the target named is T1, human MASP-2 (endogenous, in normal …). Description: cell-based or functional assay. The source holds these as a separate data set.
The target in assay [7] is T2, human MASP-2 (CCP1-CCP2-SP fragment) (human, UniProt O00187 287-686, limits assumed).
T2 construct: also called human MASP-2 (CCP1/2/SP fragment); hMASP-2-CCP1-CCP2-SP
T2 sequence (O00187 287-686 limits assumed): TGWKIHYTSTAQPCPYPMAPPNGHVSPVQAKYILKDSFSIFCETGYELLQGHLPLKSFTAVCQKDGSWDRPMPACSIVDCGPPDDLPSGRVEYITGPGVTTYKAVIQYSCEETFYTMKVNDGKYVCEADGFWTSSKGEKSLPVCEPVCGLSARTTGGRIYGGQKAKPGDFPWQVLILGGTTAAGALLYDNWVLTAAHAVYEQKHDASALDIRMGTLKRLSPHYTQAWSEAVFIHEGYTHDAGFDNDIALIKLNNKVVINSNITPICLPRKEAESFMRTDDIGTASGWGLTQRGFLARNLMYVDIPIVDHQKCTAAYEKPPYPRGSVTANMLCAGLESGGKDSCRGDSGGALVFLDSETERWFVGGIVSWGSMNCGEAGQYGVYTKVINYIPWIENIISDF
Description: solid phase ELISA, plate coated with human MASP-2 CCP1-CCP2-SP fragment. The procedure:
To measure binding of the 26 purified recombinant MASP-2 antibodies to human MASP-2 (CCP1-CCP2-SP fragment), a solid phase ELISA assay was carried out as follows. A MaxiSorp ELISA plate was coated with human MASP-2 (CCP1/2/SP fragment) at 1.0 μg/mL in carbonate/bi-carbonate buffer overnight at 4° C. […] The plate was washed (PBS-T, 0.05%) and a detection antibody was added (goat anti-human IgG-HRP) for one hour at room temperature. After another wash (PBS-T, 0.05%) the plate was developed (5 minutes) with OPT EIA TMB (BD Biosciences #555214). Absorbance reading at A450 was measured using the Spectramax M5e plate reader.
A solid phase ELISA assay was carried out to measure binding of the three selected MASP-2 inhibitory antibodies to human MASP-2 (CCP1-CCP2-SP fragment), as described in Example 1.

Assay [8] addresses T1, human MASP-2 (endogenous, in normal …). As to the kind of experiment: cell-based or functional assay. The source holds these as a separate data set.

T1 sequence (O00187 16-686 limits assumed): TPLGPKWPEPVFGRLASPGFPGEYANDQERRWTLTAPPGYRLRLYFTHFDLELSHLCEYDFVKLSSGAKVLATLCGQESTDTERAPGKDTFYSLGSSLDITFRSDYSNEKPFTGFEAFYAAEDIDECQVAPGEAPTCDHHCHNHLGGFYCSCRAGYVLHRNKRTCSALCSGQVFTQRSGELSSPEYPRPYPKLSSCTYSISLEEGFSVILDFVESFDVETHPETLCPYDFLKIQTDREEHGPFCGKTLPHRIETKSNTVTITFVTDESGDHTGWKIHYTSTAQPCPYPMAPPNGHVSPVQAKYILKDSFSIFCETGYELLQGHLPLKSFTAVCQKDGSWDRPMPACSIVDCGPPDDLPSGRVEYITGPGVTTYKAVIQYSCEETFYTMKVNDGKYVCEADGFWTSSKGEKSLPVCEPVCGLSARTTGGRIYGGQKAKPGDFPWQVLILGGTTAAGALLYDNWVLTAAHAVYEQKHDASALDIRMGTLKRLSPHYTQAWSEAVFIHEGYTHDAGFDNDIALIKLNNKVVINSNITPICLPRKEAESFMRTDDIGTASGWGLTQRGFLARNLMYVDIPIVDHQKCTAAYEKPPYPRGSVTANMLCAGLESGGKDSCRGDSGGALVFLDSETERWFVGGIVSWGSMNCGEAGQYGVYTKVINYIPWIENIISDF

B1: OMS854 (monoclonal antibody OMS852 4PA-1) (antibody, V domains shown)
VH: QVQLVQSGAEVKKPGASVKVSCKASGYTFTNYWMHWLRQAPGQGLEWIGDIDASDSETHYIEKFKDRATLTIDKSSSTAYMELSSLRSEDTAVYYCARGDITTTLRYFDVWGQGTLVTVSS
VL: DIQLTQSPSSLSASVGDRVTITCSASSSVRYMYWYQQKPGKAPKLLIYDTSNLASGVPSRFSGSGSGTDNTLTISSLQPEDFATYYCQQWSSYPLTFGQGTKVEIKR
Consider B1, for which the “Human C3b deposition, 1% human serum, IC50” value in assay [1] came to 0.09 nM.

B2: mAb OMS870 (mouse-human chimeric, mouse parental variable regions) (antibody, human IgG4 S228P, kappa, V domains shown)
VH: EVQLQQPGTELVKPGASVKLSCKASGYTFTSYWMHWVKQRPGQGLEWIGNINPSNGGTNCNEKFKNKATMTVDKSSSTAYMQLSSLTSEDSAVYYCARWAYDAMDYWGQGTSVTVSS
VL: DIVLTQSPASLAVSLGQRATISCRASESVDSYGNSFMHWYQQKPGQAPKLLIYFASNLESGVPARFSGSGSRTDFTLTIDPVEADDAATYFCQQSNEDPLTFGAGTKLELKR
For B2, the “C4b deposition on mannan, 50% human serum, IC50” value in assay [2] is 0.09 µg/mL. For the same molecule, the “C3b deposition on mannan, 1.0% mouse serum, IC50” value in assay [3] is > 100 nM. Also, the “C3b deposition on mannan, 0.3% rat serum, IC50” value in assay [4] turned out to be 0.6 nM. Moreover, the “C3b deposition on mannan, 0.25% cynomolgus monkey serum, IC50” value in assay [5] came out at 18.9 nM. For the same molecule, the “C3b deposition on mannan, 1.0% human serum, IC50” value in assay [6] is 0.13 nM. The same molecule gave an EC50 in assay [7] of 0.41 nM.

B3: mAb OMS850 (mouse-human chimeric, mouse parental variable regions) (antibody, human IgG4 S228P, kappa, V domains shown)
VH: QVQLQQPGAELVRPGSSVRLSCKASGYTFTNYWMHWLKQRPIQGLEWIGDIDPSDSETHYIEKFKDKATLTIDKSSSTAYMHLSSLTSEDSAIYYCARGDITTTLRYFDVWGTGTTVTVSS
VL: QIVLTQSPVIMSASPGEKVTMTCSASSSVRYMYWYQQKPGSSPRLLIYDTSNLASGVPVRFSGSGSGTSNSLTISRMEAEDAATYYCQQWSSYPLTFGAGTKLELKR
notes: also called OMS850 parent
For B3, the “C4b deposition on mannan, 50% human serum, IC50” value in assay [2] is 0.07 µg/mL. The “C3b deposition on mannan, 1.0% mouse serum, IC50” value in assay [3] was 0.5 nM. Moreover, the “C3b deposition on mannan, 0.3% rat serum, IC50” value in assay [4] is 0.05 nM. Besides, the “C3b deposition on mannan, 0.25% cynomolgus monkey serum, IC50” value in assay [5] amounted to 0.4 nM. Moreover, in assay [6], the “C3b deposition on mannan, 1.0% human serum, IC50” value was 0.15 nM. The “Human C3b deposition, 1% human serum, IC50” value in assay [1] is 0.15 nM and 0.12 nM. Moreover, the EC50 in assay [7] was 0.25 nM. Also, the “Human C3b deposition, IC50” value in assay [8] was determined as 0.09 nM.

B4: OMS850_VH_P53/N (antibody, IgG4, V domains shown)
VH: QVQLQQPGAELVRPGSSVRLSCKASGYTFTNYWMHWLKQRPIQGLEWIGDIDNSDSETHYIEKFKDKATLTIDKSSSTAYMHLSSLTSEDSAIYYCARGDITTTLRYFDVWGTGTTVTVSS
VL: QIVLTQSPVIMSASPGEKVTMTCSASSSVRYMYWYQQKPGSSPRLLIYDTSNLASGVPVRFSGSGSGTSNSLTISRMEAEDAATYYCQQWSSYPLTFGAGTKLELKR
In the case of B4, the “Human C3b deposition, IC50” value in assay [8] is 0.53 nM.

B5: OMS850_VH_P53/D (antibody, IgG4, V domains shown)
VH: QVQLQQPGAELVRPGSSVRLSCKASGYTFTNYWMHWLKQRPIQGLEWIGDIDDSDSETHYIEKFKDKATLTIDKSSSTAYMHLSSLTSEDSAIYYCARGDITTTLRYFDVWGTGTTVTVSS
VL: QIVLTQSPVIMSASPGEKVTMTCSASSSVRYMYWYQQKPGSSPRLLIYDTSNLASGVPVRFSGSGSGTSNSLTISRMEAEDAATYYCQQWSSYPLTFGAGTKLELKR
Consider B5, for which the “Human C3b deposition, IC50” value in assay [8] came to 0.16 nM.

B6: OMS850_VH_P53/A (antibody, IgG4, V domains shown)
VH: QVQLQQPGAELVRPGSSVRLSCKASGYTFTNYWMHWLKQRPIQGLEWIGDIDASDSETHYIEKFKDKATLTIDKSSSTAYMHLSSLTSEDSAIYYCARGDITTTLRYFDVWGTGTTVTVSS
VL: QIVLTQSPVIMSASPGEKVTMTCSASSSVRYMYWYQQKPGSSPRLLIYDTSNLASGVPVRFSGSGSGTSNSLTISRMEAEDAATYYCQQWSSYPLTFGAGTKLELKR
With B6, the “Human C3b deposition, IC50” value in assay [8] came to 0.07 nM.

B7: mAb OMS860 (mouse-human chimeric, mouse parental variable regions) (antibody, human IgG4 S228P, kappa, V domains shown)
VH: QVQLQQPGAELVRPGSSVKLSCKASGYTFTNYWMHWVRQRPIQGLEWIGDIDPSDSEIYYNQKFKDKATLTVDKSSSTAYMHLSSLTSEDSAVYYCARGDITTTLRYFDVWGTGTTVTVSS
VL: QIVLTQSPVIMSASPGEKVTITCSASSSVSYMYWYQQKPGSSPRLLIYDTSNLASGVPVRFSGSGSGTSNSLTISRMEAEDAATYYCQQWSSYPLTFGAGTKLELKR
For B7, in assay [2], the “C4b deposition on mannan, 50% human serum, IC50” value came to 0.1 µg/mL. Also, the “C3b deposition on mannan, 1.0% mouse serum, IC50” value in assay [3] came out at 5.8 nM. Besides, the “C3b deposition on mannan, 0.3% rat serum, IC50” value in assay [4] came out at 0.3 nM. The “C3b deposition on mannan, 0.25% cynomolgus monkey serum, IC50” value in assay [5] is 26.2 nM. In addition, the “C3b deposition on mannan, 1.0% human serum, IC50” value in assay [6] amounted to 0.6 nM. In assay [7], the EC50 stood at 0.23 nM.

By EC50 is commonly meant the concentration needed to bring the measured effect to its halfway point.
